Reference: the supplement of paper PMC12042874
± gives the uncertainty stated by the source.

Assay: amyloid nucleation score (Sup35N fusion, yeast selection) (log enrichment); library NNK1; higher = more nucleation; inactive = no reads after selection
How it was run: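 Random libraries were run with three technical output replicates. In each, psi-negative yeast expressing Sup35N fused to peptides of 20 random codons were induced 24 hours with 100 μM copper sulfate and grown 7 days at 30°C on medium lacking adenine and uracil, and input and output plasmid inserts were Illumina-sequenced. The nucleation score is the DiMSum log enrichment of output over input reads, centred on the mode score of non-aggregating sequences, and sequences under 100 input reads were excluded.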

Point of comparison: SKASMEGYW, amyloid nucleation score 0.739 ± 0.54. Against it:
- RKLLSISL — within error, 0.22 ± 0.71
- CFFASVHPLCYRGVSGVGVF — within error, -1.28 ± 2.1
- LVSCDIVWWTAMFGLLARMF — within error, 0.591 ± 0.37
- PISCFTDHMQMFMRSNGRGL — within error, 1.16 ± 0.29
- ICIASFCKKNVTCGLIWLIV — within error, 1.51 ± 0.7
- INFRHA — higher, 2.57 ± 0.33
- NYIVKAFSVVCFTSDTSSFR — higher, 6.08 ± 0.096
- LLDRLRRTGLRRCYVSGEFP — higher, 5.89 ± 0.084
- MAFLYFMFILFHARCLIRLP — within error, -0.177 ± 0.65
- VRHGRSYSFLRQGDFMWCGS — within error, -0.306 ± 0.57
- SPSFYFH — within error, -0.019 ± 0.98
- YHDVGSAVRMLYQMGPKRVF — within error, -0.442 ± 1.4
- NPWLSNFSCK — within error, 0.244 ± 0.47
- AHPSNSYGRNNGVLASHRWD — lower, -0.847 ± 0.41
- RRLLTCGGSPYRQLR — within error, -0.078 ± 0.98
- MRVWKSILFDRSFFVFGLWR — lower, -0.543 ± 0.6
- RNCNTT — within error, 0.034 ± 0.61
- TKLTSVYMK — within error, -0.355 ± 0.62
- EANMIYFLNGANLHRFFKHF — within error, 1.59 ± 0.35
- CTADWLRDPRVGVRGPEGGG — within error, 0.273 ± 0.3
- FTVVLYLSVVLKFKDAGEEG — higher, 4.09 ± 0.092
- LRFVVFASTIGRGIGST — lower, -0.892 ± 0.48
- YGDGMGPWCYCWAFAEPRRS — within error, 0.114 ± 1.1
- HLDGSVISNSMVNIVFLSLV — higher, 5.71 ± 0.072
- SDSGCEGESCQNRLISVGLL — within error, -0.084 ± 0.46
- FQAQWNLSTCPNAFCLFLIR — higher, 5.82 ± 0.059
- FHASATRTFIVFCIC — within error, 0.556 ± 0.38
- GHWLYMTYLCL — within error, 0.459 ± 0.75
- FMSEDESYVCYRWGWYDRIF — lower, -0.919 ± 1
- CGAVHGGGWSAIYLNGYLGW — within error, 0.186 ± 0.95
- CRSSVFKYVPVSNIFDYFSI — within error, 0.921 ± 0.84
- WRWYEGGLTLSWSHASSA — within error, -0.536 ± 0.98
- LVASSFDYMMLSSVGRGYGL — lower, -0.245 ± 0.3
- LKVTCFRTYANFGRYDILVF — within error, 0.096 ± 0.53
- LMSWEL — within error, 0.462 ± 1.2
- GTRCMALALGLHIYIFIRGG — within error, -0.161 ± 0.46
- PRIRSPEMDVMSPPNFLWGL — within error, 0.213 ± 0.48
- QVRLVNWVCRM — higher, 3.71 ± 0.059
- LYFEIYRVIIFKDAFVASMR — lower, -0.63 ± 0.64
- MLGCFISFTIKLLG — higher, 1.39 ± 0.11
- SQLESFWVYMQLRGMTYTVA — within error, -0.081 ± 0.31
- QLSRSVWRRMRRQQKHPLTG — within error, 1.62 ± 0.81
- ARSTSALQL — lower, -1.97 ± 1.8
- KPTLGVILTTTTFTRSCLYY — within error, -0.252 ± 0.73
- MRLNYGNITLSFGSPMMQTI — within error, 0.682 ± 0.15
- TVFGVL — within error, 0.705 ± 0.77
- FVVRLRLLANLWWYNCCKCS — within error, 0.748 ± 0.43
- ILGLSRGQ — within error, 0.015 ± 0.37
- SFVFGHIVKK — higher, 2.72 ± 0.086
- AVGIANFTAPKCWLDNVGP — within error, 0.085 ± 0.59
- RSNNSFCIPLSFMCYVYQAT — within error, -0.172 ± 1.6
- PLVVGRVCEGYRRWCWFGRR — lower, -0.369 ± 0.38
- FQGTIR — within error, 0.193 ± 1
- KVKRFDGCSSRSKHVVTEI — higher, 4.13 ± 0.076
- AFRVS — lower, -0.513 ± 0.63
- FGPCMRFDCCNRGST — higher, 4.72 ± 0.082
- NLFLMLVDLVSLGTTI — higher, 2.08 ± 0.51
- VFSDQQDHQHGWTYETSLSA — within error, 0.619 ± 0.7
- FVSRGLYGVLGTVSFLL — lower, -2.07 ± 1.6
- VNAIRSHAVWNGGQGPRFHS — within error, -0.098 ± 0.42
- ATCCNSWIAF — higher, 7.035 ± 0.054
- CIEDVCCS — within error, -0.016 ± 0.23
- FLKSYLLRC — within error, 0.012 ± 0.63
- AGVLAV — within error, -0.246 ± 0.46
- LKTSRMFLG — lower, -0.68 ± 0.39
- KVSVRYSNYSCVYFVYCRW — within error, 0.279 ± 0.27
- DNFMSAGRLWSDSSADLIIT — within error, 0.277 ± 0.79
- IKGPLLFIFSESVLAFDETS — higher, 3.6 ± 0.073
- GLRSESRKRGGGGGVAREVG — within error, -0.053 ± 0.86
- SFVVGNGYMVGWWFITAHVA — within error, 0.499 ± 0.41
- LSCPRNYWRSSLLVFMDGSQ — within error, 0.319 ± 0.63
- ILFFRRCISVGLL — higher, 3.33 ± 0.12
- TGLSCCCMNISRNGREMVPR — higher, 6.281 ± 0.058
- ASFRNRPCVQCPGLCILRLS — within error, 0.002 ± 0.24
- FSRSWGDCIGERCGVV — within error, 0.307 ± 0.38
- AGPDSSGAGGGSARFLFPEL — within error, 0.184 ± 1.2
- GFFGFIGRVMVIGRWREVPG — lower, -0.265 ± 0.24
- FTSRYLDF — within error, 0.382 ± 1.2
- ILGMFSTICDGWADVMH — within error, 0.525 ± 0.36
- GPWGQICSDTFYLLFVWVSW — within error, 0.133 ± 0.37
- HEIKIRHFIRMTGSGSYQSL — within error, 0.176 ± 0.29
- IKPANYA — lower, -0.679 ± 0.53
- FAKVESLLWAGICTGRDEVM — lower, -0.318 ± 0.46
- NLYVNN — within error, -0.623 ± 1
- SVCGH — lower, -0.237 ± 0.37
- YIQLVI — lower, -0.279 ± 0.32
- SFMSGSFEWPRSYRALGFKA — within error, -0.719 ± 1.2
- KCMFVESKSRDNCVMSNES — within error, -0.055 ± 0.9
- IRGFSSSISLWWVDGTVANV — lower, -0.422 ± 0.49
- FLYRSYVNIGLGGANISNLV — higher, 4.3 ± 0.12
- VPGRWHSLCASYTLYA — within error, 0.469 ± 0.72
- MRMRKNEHYE — within error, 0.476 ± 0.46
- LDAGH — within error, -1.56 ± 1.8
- HHIRCRVRIQNNPS — within error, 0.368 ± 0.55
- GMYLYIPLSITFTVEHTVVA — higher, 5.02 ± 0.093
- CWNVLNCMHAFRCGPMNQRR — within error, 0.831 ± 0.58
- EFGASRNAYTMRRILENGSA — within error, -0.123 ± 0.38
- GFKGILTYGRGVLVHFYRPQ — within error, 0.09 ± 0.35
- GSTYR — lower, -0.482 ± 0.51
- IMARCIVFKPG — within error, 0.136 ± 0.75
- KMFTGNSEFFCFLTTVKLDR — within error, -0.068 ± 0.61
- ENHSECNWRKCQQTLISHEC — within error, 0.487 ± 0.71
- ILTMVEILKTIRGSA — lower, -0.316 ± 0.47
- EQFNT — within error, 0.323 ± 0.56
- SNQAHSMLISTIIMILGCYC — within error, 0.419 ± 0.34
- TTLPREYYHRRVSVG — within error, 0.373 ± 0.43
- DGIRSWENSMVIYGI — within error, -0.091 ± 0.4
- VAMILYGFTFWILRCNEWCR — within error, 0.377 ± 0.24
- FTCRFFVCFGLCGDHEHSPI — higher, 7.561 ± 0.057
- VNVCESTPPDVESRGVCDAG — higher, 2.06 ± 0.1
- YSVSCSVF — lower, -0.341 ± 0.31
- ALSGCERRNHLSCRSNLRDG — within error, -0.542 ± 0.91
- FDECGAGLLPTG — within error, -0.198 ± 0.41
- DSPNVVQLLKYTLRYEARLG — within error, 0.877 ± 0.16
- RMPRCKVFSVFSLLHAQY — within error, 1.35 ± 0.9
- LERKMYRNISSLTVVGYTMS — within error, -0.095 ± 0.51
- NCECVFIPMKEPGFYR — within error, -0.357 ± 0.63
- DSCEW — within error, -0.062 ± 0.58
- LCGSGGLMCRQGHYAEMGGC — within error, -0.287 ± 1.1
- QVGPVREHEHKVLAGLSMDW — within error, 0.498 ± 0.38
- ISKNLNRMHILVLYMVGMRF — within error, 0.259 ± 0.88
- IFSHIPCLITFSNDQ — higher, 2.13 ± 0.43
- MRQQGWYTESTFVMCQFTGG — higher, 2.04 ± 0.088
- FEAFFNGHSSREYLVISVRL — within error, 0.153 ± 1.2
- VTFLFNFWHVFC — higher, 6.95 ± 0.074
- LLWAPILCLTGDNTVGFLSP — higher, 3.3 ± 0.066
- WKIRKKA — within error, 0.155 ± 0.7
- ANWCF — within error, -0.213 ± 0.5
- LSLTRAMGIYFRWVLSRSFG — within error, -0.837 ± 2.4
- MYCFLAKDLRVTEKFWRRGS — lower, -0.448 ± 0.64
- RVSCFRTRDRIFGVFTQSQV — within error, -0.314 ± 1.2
- SIGVGCGEVCFLYRSEPIFV — within error, -0.04 ± 0.31
- GSIWED — lower, -0.778 ± 0.64
- VVMLNFYCIRNRRVWIVNIC — higher, 3.76 ± 0.058
- YSMSRMIIKVKLQRHVMNYS — lower, -0.88 ± 0.73
- MQRLLYACVHYRESAQVSTL — higher, 1.93 ± 0.37
- RSELI — lower, -0.211 ± 0.36
- LTCMLVRRFGNFIDDSYARA — lower, -1.2 ± 0.5
- WGNLCRNYD — within error, 0.004 ± 0.28
- ALVRL — within error, 0.085 ± 0.46
- GNAWCGLGSKKYCVWLYHYS — within error, 0.214 ± 0.28
- SALLEQRLSSGLDVAISLRI — within error, -0.368 ± 0.9
- LCLISDMPKHFGCGYTKCSL — lower, -1.17 ± 0.63
- CISGD — within error, 0.429 ± 0.37
- DVFGLLSIYYR — within error, 1.1 ± 0.57
- GRATMGRGRCNLFGHKGHGH — within error, 0.046 ± 0.55
- LGKNFLYISCSLTDQGAGLH — higher, 2.7 ± 0.16
- GFMVDERSTIVEDLPRSADV — lower, -0.913 ± 0.34
- ILSAMVRE — lower, -0.081 ± 0.23
- IRSQKCCFLHRWFLACFRII — within error, -0.624 ± 1.1
- NYVYSSVVGLLIW — lower, -0.077 ± 0.19
- LRHTCVRPSWSNAIFMPNSA — within error, 0.834 ± 0.57
- HVQEDLNAVGHPLEFEMTVR — within error, -0.979 ± 1.9
- IMLTGLRLHVVDGEKLPMTS — within error, 1.01 ± 0.71
- EESSPEAWSVRERTAGVFVF — within error, -0.09 ± 0.86
- SYSFWPMQLTCYFFDVGRCL — higher, 7.434 ± 0.073
- LVLLQVVIYGHLQCSFYQMH — higher, 1.8 ± 0.23
- LYSSLSYTKFMCAG — within error, -0.51 ± 0.81
- DVFADGKVIQAYLM — within error, -0.117 ± 0.39
- LWSFIGTGLITNMCISREFK — within error, 0.743 ± 0.16
- YHIMGFSSYGGVVRWMSS — lower, -0.312 ± 0.36
- MRLCPEPASKSDMPFSRDLR — within error, 0.268 ± 1.4
- RINMGNYSLKWNMFTKVSLK — lower, -0.227 ± 0.35

With TPLYDIWDVSVDLPLPCIFS the amyloid nucleation score was “inactive”.
For LSNKLEYPMSPLISAVLFSA, the amyloid nucleation score was “inactive”.
For CVKASLMMWVQFYIDSY, the amyloid nucleation score was “inactive”.
With SANDFKMWGMVDKFGVMVLL the amyloid nucleation score was “inactive”.
In the case of DPHYL, the amyloid nucleation score is reported as “inactive”.
With PMLVQLLEASWVKPVLDCIY the amyloid nucleation score was “inactive”.
With LVLIAA the amyloid nucleation score was “inactive”.
In the case of TVTLGVPRQCAGTCRMVSLN, the amyloid nucleation score is reported as “inactive”.
For FRVQVTYIFRSLEICDPTVG, the amyloid nucleation score was “inactive”.
With HWWYFCINP the amyloid nucleation score was “inactive”.
